Residue numbers refer to the chain shown, from its start.

Experimental findings from patent publication US20160017037A1 (GlaxoSmithKline, published 2016) are described below.

Sequences and labels used below:
T1: Recombinant human LAG-3 ECD-His6 (human, UniProt P18627 23-433)
T1 construct: also called LAG-3-His; recombinant human LAG-3-His
T1 sequence: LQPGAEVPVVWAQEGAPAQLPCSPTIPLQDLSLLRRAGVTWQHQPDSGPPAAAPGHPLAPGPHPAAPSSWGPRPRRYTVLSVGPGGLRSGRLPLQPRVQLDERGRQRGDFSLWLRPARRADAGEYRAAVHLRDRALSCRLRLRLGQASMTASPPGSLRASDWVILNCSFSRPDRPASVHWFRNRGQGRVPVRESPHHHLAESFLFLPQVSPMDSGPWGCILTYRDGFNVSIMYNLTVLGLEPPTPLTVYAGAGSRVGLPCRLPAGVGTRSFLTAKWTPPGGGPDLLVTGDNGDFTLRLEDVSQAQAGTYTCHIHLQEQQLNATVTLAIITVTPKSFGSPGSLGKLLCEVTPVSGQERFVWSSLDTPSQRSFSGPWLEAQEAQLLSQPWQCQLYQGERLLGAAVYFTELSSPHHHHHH

T2: recombinant soluble human FcγRIIa H131 (human, UniProt P12318 36-218, limits assumed)
T2 sequence (looked up): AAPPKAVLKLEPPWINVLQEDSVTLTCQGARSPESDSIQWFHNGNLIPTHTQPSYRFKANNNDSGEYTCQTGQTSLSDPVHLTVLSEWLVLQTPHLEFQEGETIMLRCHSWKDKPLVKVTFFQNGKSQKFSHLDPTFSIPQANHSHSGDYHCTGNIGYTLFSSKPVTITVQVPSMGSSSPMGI

T3: recombinant soluble human FcγRIIa R131 (human, UniProt P12318 36-218, limits assumed)
T3 sequence (looked up): T2 sequence (looked up) with H132R

B1: H5L7BW (antibody, human IgG1, kappa)
heavy: not shown
light: DIQMTQSPSSLSASVGDRVTITCKSSQSLLNPSNQKNYLAWYQQKPGKAPKLLVYFASTRDSGVPSRFSGSGSGTDFTLTISSLQPEDFATYYCLQHFGTPPTFGQGTKLEIKRTVAAPSVFIFPPSDEQLKSGTASVVCLLNNFYPREAKVQWKVDNALQSGNSQESVTEQDSKDSTYSLSSTLTLSKADYEKHKVYACEVTHQGLSSPVTKSFNRGEC
modifications: afucosylated: no fucose on the core carbohydrate structure attached to Asn297
notes: Same plasmids as H5L7, expressed in the BioWa POTELLIGENT (FUT8 knock-out CHO) cell line; also called afucosylated antibody H5L7BW; afucosylated H5L7
B2: H5L7 (antibody, human IgG1, kappa)
heavy: not shown
light: B1 light
notes: Humanised IgG1/kappa of A9H12 (IMP731); also called fucosylated H5L7; non-ADCC enhanced variant H5L7
B3: IMP731 (antibody, human IgG1, kappa)
heavy: not shown
light: DIVMTQSPSSLAVSVGQKVTMSCKSSQSLLNGSNQKNYLAWYQQKPGQSPKLLVYFASTRDSGVPDRFIGSGSGTDFTLTISSVQAEDLADYFCLQHFGTPPTFGGGTKLEIKRTVAAPSVFIFPPSDEQLKSGTASVVCLLNNFYPREAKVQWKVDNALQSGNSQESVTEQDSKDSTYSLSSTLTLSKADYEKHKVYACEVTHQGLSSPVTKSFNRGEC
notes: Chimeric (murine variable domains, human IgG1/kappa constant regions); also called A9H12; chimeric antibody IMP731

T5 sequence (P08637 17-208 limits assumed): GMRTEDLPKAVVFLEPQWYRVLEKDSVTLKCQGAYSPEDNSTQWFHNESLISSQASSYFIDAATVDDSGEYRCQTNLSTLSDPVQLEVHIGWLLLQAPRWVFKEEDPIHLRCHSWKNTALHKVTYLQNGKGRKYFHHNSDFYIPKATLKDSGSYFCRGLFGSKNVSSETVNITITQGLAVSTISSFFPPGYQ

The target in the first assay is T1, Recombinant human LAG-3 ECD-His6. Description: SPR Biacore T100, antibody captured on Protein A, LAG-3 ECD-His6 analyte, 1:1 model, 25 C, geometric mean of 3 runs (table head says nM; value is in M by paragraph 194). On the procedure:
Wild type fucosylated and afucosylated antibodies were compared for their ability to bind to recombinant human LAG-3 ECD with a C-terminal His6 (SEQ ID NO:51) using the Biacore™ T100 (GE Healthcare™). Protein A was immobilised on a CM5 chip by primary amine coupling. This surface was then used to capture the humanised antibodies. Recombinant human LAG-3 ECD-His6 was then passed over the captured antibodies at 32, 8, 2, 0.5 and 0.125 nM and regeneration was carried out using 50 mM NaOH. The binding curves were double referenced with buffer injection (i.e. 0 nM) and the data was fitted to the T100 analysis software using the 1:1 model. The run was carried out at 25° C., using HBS-EP as the running buffer.
In order to investigate the statistical significance of this kinetic data, this experiment was repeated 3 times with the same batch of the four antibodies and the chimeric control. KD, ka and kd parameters were each log (base 10) transformed prior to separate statistical analyses. For each parameter, a mixed model analysis of variance CAnova′) was performed on transformed data, including terms for Run (random block effect) and Antibody.
Consider B1, for which the dissociation constant Kd was found to be 0.218 nM.

As for B2, the Kd worked out at 0.208 nM.

On to B3, for which the Kd is 2.76 nM.

Another assay concerns the target T2, recombinant soluble human FcγRIIa H131. Description: SPR ProteOn XPR36, His-tagged receptor captured on anti-poly-histidine IgG, antibody analyte 8-2048 nM, equilibrium model, 25 C. On the procedure:
(§1) A goat anti-poly-histidine IgG was immobilised on a GLM biosensor chip by primary amine coupling. This surface was used as a capture surface for the poly-histidine tagged human Fc gamma receptors. […] The goat anti-poly-histidine IgG surface was regenerated with 100 mM phosphoric acid between interactions. The run was carried out on the ProteOn XPR36 Protein Array Interaction System at 25° C. and using HBS-EP as running buffer. Data was analysed for each receptor separately, setting a global R-max and using the Equilibrium Model inherent to the ProteOn's analysis software. Control molecules were run at the beginning and the end of the set of samples to be tested to ensure comparability of results. Data was compared from two experiments and hybrid control antibodies used as controls between experiments.
With B1, the Kd is 1430 nM.

Consider B2, for which the Kd came out at 638 nM.

With B3, the Kd was found to be 1280 nM.

A further assay concerns the target T3, recombinant soluble human FcγRIIa R131. The description is as above. On the procedure:
as §1
Take B1: the Kd stood at 1490 nM.

In the case of B2, the Kd stood at 792 nM.

As to B3, the Kd was 2620 nM.

For the next assay, the target named is T4, recombinant soluble human FcγRIIIa V158 (human, UniProt P08637 17-208).
T4 construct: also called FcγRIIIa valine V158; CD16
T4 sequence (P08637 17-208 F176V limits assumed): as the sequence (P08637 17-208 limits assumed) above, with F160V counted along it
The description is as above. On the procedure: as §1
Regarding B1, the Kd worked out at 21.8 nM.

Turning to B2, the Kd was found to be 236 nM.

With B3, the Kd was 406 nM.

A further assay addresses T5, recombinant soluble human FcγRIIIa F158 (human, UniProt P08637 17-208).
T5 construct: also called FcγRIIIa phenylalanine F158; CD16
Described as above. On the procedure:
as §1
For B1, the Kd came out at 81.1 nM.

For B2, the Kd was determined as 752 nM.

With B3, the Kd came to 1750 nM.

By Kd is commonly meant the free concentration of one partner at which half of the binding sites on the other are occupied at equilibrium, for simple one-to-one binding.
